Experimental data taken from article PMC12243196, “Division of the large and multifunctional glycoside hydrolase family 2: high functional specificity and biochemical assays in the uncharacterized subfamilies” (Biotechnology for Biofuels and Bioproducts, 2025).
Read-outs that look alike come from different tables or passages of the source.

Assays:
[1] = target: T1, AmGH2_9 (Akkermansia muciniphila, UniProt B2UM41); assay: activity screening, absorbance at […] nm; format: biochemical
T1 construct: gene Amuc_1667

[2] = test system: T2, BfGH2_9
T2 construct: gene BF638R_1918

[3] = substrate: O=[N+]([O-])c1ccc(O[C@@H]2O[C@H](CO)[C@H](O)[C@H](O)[C@H]2O)cc1; assay: purified protein

T2 sequence (E1WVB9 30-864 limits assumed): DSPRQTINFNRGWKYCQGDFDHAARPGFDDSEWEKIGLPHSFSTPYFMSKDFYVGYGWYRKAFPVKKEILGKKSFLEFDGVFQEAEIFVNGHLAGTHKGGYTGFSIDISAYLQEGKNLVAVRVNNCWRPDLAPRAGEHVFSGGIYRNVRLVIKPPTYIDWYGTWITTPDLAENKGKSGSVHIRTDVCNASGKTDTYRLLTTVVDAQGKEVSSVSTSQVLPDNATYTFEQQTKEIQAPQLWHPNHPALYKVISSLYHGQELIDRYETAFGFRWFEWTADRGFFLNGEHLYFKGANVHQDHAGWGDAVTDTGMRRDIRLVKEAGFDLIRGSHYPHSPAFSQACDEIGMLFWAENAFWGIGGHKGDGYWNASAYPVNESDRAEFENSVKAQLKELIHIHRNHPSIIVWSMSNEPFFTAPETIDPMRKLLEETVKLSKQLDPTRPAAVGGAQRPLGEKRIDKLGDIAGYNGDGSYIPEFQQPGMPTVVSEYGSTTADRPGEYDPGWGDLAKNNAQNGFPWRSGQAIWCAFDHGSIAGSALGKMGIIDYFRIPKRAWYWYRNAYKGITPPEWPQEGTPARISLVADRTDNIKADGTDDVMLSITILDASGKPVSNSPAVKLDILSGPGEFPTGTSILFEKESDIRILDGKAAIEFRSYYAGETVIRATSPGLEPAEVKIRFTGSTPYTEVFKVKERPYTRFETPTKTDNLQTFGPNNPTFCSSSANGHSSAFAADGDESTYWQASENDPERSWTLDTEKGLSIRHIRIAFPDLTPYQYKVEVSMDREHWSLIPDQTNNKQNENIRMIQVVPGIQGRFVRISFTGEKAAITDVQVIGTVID
T1 sequence (B2UM41 entry or part of it): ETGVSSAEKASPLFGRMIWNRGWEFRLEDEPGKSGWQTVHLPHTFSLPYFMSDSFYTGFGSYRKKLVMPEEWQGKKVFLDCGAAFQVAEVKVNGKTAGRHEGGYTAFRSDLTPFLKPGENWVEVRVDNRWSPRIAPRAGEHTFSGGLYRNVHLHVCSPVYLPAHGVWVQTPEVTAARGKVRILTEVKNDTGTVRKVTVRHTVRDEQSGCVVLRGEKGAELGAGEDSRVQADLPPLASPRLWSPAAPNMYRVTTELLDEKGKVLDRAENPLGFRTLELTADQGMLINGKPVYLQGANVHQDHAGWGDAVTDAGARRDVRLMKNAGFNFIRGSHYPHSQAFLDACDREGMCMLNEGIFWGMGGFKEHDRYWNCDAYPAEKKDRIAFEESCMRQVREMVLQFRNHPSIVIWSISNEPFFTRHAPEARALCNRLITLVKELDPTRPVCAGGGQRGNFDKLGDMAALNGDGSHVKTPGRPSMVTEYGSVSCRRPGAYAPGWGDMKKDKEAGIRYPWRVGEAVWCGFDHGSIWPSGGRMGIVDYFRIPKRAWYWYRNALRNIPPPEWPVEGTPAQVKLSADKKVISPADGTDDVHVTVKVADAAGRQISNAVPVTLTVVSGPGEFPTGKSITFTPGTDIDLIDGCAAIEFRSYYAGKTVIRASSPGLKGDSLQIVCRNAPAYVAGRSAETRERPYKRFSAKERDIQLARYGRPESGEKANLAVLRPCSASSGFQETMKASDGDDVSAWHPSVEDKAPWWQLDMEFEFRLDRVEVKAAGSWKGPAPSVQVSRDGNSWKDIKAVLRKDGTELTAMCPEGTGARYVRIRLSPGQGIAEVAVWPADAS

O=[N+]([O-])c1ccccc1O[C@@H]1O[C@H](CO)[C@H](O)[C@H](O)[C@H]1O [oNP-β-D-Galp]
activity screening, absorbance at 405 nm [1]: All the enzymes also displayed activity on oNP-β-D-Galp (data not shown)
activity screening, absorbance at 405 nm [2]: All the enzymes also displayed activity on oNP-β-D-Galp (data not shown)

B1: (Ruminiclostridium cellobioparum subsp. termitidis CT1112) (protein)
chain: MNNRKQICLNGLWDFCPGNGTLDRIPRKWDKTQIKVPSPWNINTFAGPEKLTCGEEEIFLRGGEFNLYPEYPKAWENAQSGWYKTEMFIDEEWRGKVITLKFNAVLFYSEFYINGKLISTDADGFLPHEFPVQDHVKYGGSNTLVVGVKKLDAFRYKNEAGKNRIEYPTGSFWGKTMGGIWQDVYLNVYPHDHITDIFVRTDVNSNILRVDADLAADRGEDFTVGMVLREWSGDRSFKLACGLPVNGNSVEFIFDYSGIKDEIRQWWPDSPELYYIDVILHSGNEIVDVKTARFGFKSFEVRGKQFYLNGTPINLRNDSWHYMGFAYQNEEYARLWYKMARDANVNCIRLHAQVYPEFFLDMADEMGMMIVDETSIWASHCEFHYSMEFVENGKKHIKRMIERDRNHPSIIIWSVENECIMAYRVSADDGVKDENELNERLFLLAEYAGSLDPTRPVSGDGSQDMGGRLDVYSLHYPGKKGPENVNKPVTIGEMGSLYYATPDCVCNQYGEKTYLSFDGRLEAIGRELFENLKHERKWAAQVCVFNLVWYGLKPLPFKERIINYPDLSLPGVKPTRTGPYISTLNAAYDDSLPEYIPNTVFEWVRQAYLPERFFFEEGRSRYYNGEAGAKKISVFNDSFEEKEYILEWQMEQKGEILGSGNKSVLVNPAGYEELDIEFDLPAADSIERLSLRILMKFRDNIVFEDVCSIKVYNKNHIFSFMGGFGKVGILGGSRLDANEFFEKSGIETVDGLTQGIDIYLLEECTEEAAAGLTWACCSVLDLLPEKHGFKSWLSHGSAENAFLNVDDRTLMENLEEEDLSNWGNGYLCNNTFQDNLCVSAFNLFCTGKGIPLILDVKNGKARQLVSTIPLLKWAAEEPAALVLLSNLIAYAAQTGKTEAHECVLVSKKDSDMHRSFENMGIDFTLAEVKNRDQIRSLREVKLLVADGSCRLDYLDEIMPYNAEQILLCNFDEATLPDSLKGYIEVVEKPLYQLIKAGKDNALTDGIHAGDLYGLEAGQETVICKRPFLIKDDRKVKGLLKNADLNWRMWNFQGEDRKTVSILRSEQETKTPLYGLAETHINTVKVILGQIDMSYANRKLERLASRFFLQYGTYSKL
Km ([3]; 40.0 °C): 40 ± 1.2 µM
kcat ([3]; 40.0 °C): 0.0233 s⁻¹
kcat/Km ([3]; 40.0 °C): 586 M⁻¹ s⁻¹

B2: (Saccharophagus degradans 2-40) (protein)
chain: MVVNTDITQWSLTKTNANGAQTPADIIPLQQWLAVPVPGTVAQAVGDAGPQEDLEQFDWWYTAQFPLPKTGKRTYLQCDGLATLSEVWVNDQQVLYSQSMFENHKLDITDYLQADNTLAIVFKALAPHLAERRARPQWKTNLVDNQNLRWFRTSLLGRMPGWTPPVKAIGPWRDISIVSVAKFDLVECTVFSEVDEALNGKVHINLELDFIDAKLAADPQIQFLLDGKIYPITAKPIKGGGAFIDTEIAIEQPQLWWPHTHGEPYLHAYKITAIIDGEVTTLTEGKLGFKRVTAANQTNQLALEVNNNKIFCRGACWATPNITSLNASKQEYRHLLKLLVDAGANMVRIGGTMVYEHDDFYALCDELGILVWQDFMFANMDYPFADEDFSKLVAKEVRQQITRLKQTASIAVFCGNSEMQQQAAMMGMEQTQWANALFDTFITQKLEEQQLTLPYFTSSPCEGGLPFHTDAGLTHYYGVGAYKLMPDHFTVREVGFTSECLGFSHIPVTASLKQAFESPYPATHTPSWKAGIPRDNSAGWDFEDIRNFYLEKIFGVVADTLRYSDPETYFKLATIATAEMVSSVYSIWRASISNCNGALAWFYQDIVAGAGWGIVDSFARPKAAYYFLKRVWQPQQVLLINNSLNGYTLEVQNETAHTLQAQLNIVLVGLSDNIVAEHTQEITLAANSVGTHKLDTVFGRFMDATHAYKFGRQTIYAVVAELRNESGELISQAVSFPGCRRINTGAGEITGSITSDSDNESVVTLTPSVFVEYACLESKTTQFSDNYTCMLPGKTYSFKACEQIKSVHVSTLNLQKEFRVT
Km ([3]; 40.0 °C): 64 ± 12.6 µM
kcat ([3]; 40.0 °C): 0.02 s⁻¹
kcat/Km ([3]; 40.0 °C): 306 M⁻¹ s⁻¹

B3: (Zobellia galactanivorans) (protein)
chain: QTEKVDLPGEERMLLSGNWKFHAIYGEGSNYIDISETLEDIVIDNTDKDRVSVKGDWKTRSEGERGSGFLGTDYLQRDFKSGESDQNYVRYRPELPESGFYEAFVRFPFASHLTAEVNVNHAQGITAAYFNQRNRCDQWLSLGVFSFDKTLDSYVEVTAITASTVVADAVMFRPVSKEKMEEADIEKSSVFQVDFDDSNWKDLRVPGHWGMLNAYSNYTGKGWYRKTFELPKNWKSVSNERIRLKFDAVYHIARVFLNGELVGLHQGGFTPFEFDITDKLNYNGQNVLAVEADNNALVGATWNWGGIIREVHLIKNNDVRISYQYIHADPDLKKGSANLKLKVRIKNSSTRQRTVLLAAHIEEASSPVDLTYKVKVPANSTQEIQLATTLPATDVKLWHFDTPNLYHLTTTISENGQVLDTQKDRFGIRKIELTDSQLILNGEPVRLSGFNRVSDHRYWGSSEPQYLIDKDVDLMKNAGANFMRIMHGTQNKKLMDRCDEKGILIFEEVNVRELTNPEFTPPHYPLAKQWLKEMIERDVNHPSIIGWSVGNELKDHFDYAKETIDYVKKELDPYRLVTCVSNSGWRDSATPEKDPNTLVDIIMHNLYPFQGTPDKVFKTLRAKWPDKPIFISEYGIKPMATTSLDGDIPELSEWNDHLRGKNTYVIGASLWTFNDYRSGYAATSPEENRVWGLVNTWRQKRKLYHRIQKENSPLADLKIDGIDLKNGGAKVRITPKPVNGYPVYSLKGYTLEFTMYDKQGEILFSKTHSLPHIVPGGKPTEVAIDWQRYMTGMAQIHAAVISPNGYIRHQTSISLELPEKTSILAIEKGHGTVRVHYRPVFGADTYYVAYADGKGLERKSDTSTTHSIEIKDLDPEEEYAFSVIAQNSKGKSVPSGTRTTKANADVLPPMIWDAFLSDGKLVVGYSGAPDDVEYIVKYGLRDSYFPYKNSTRTKGMTVIDFEGDDPHFVSIKKKTKTGESDWSKPIHVYTIRNKERYRN
Km [3]: 67 ± 8.3 µM
kcat [3]: 0.0133 s⁻¹
kcat/Km [3]: 204 M⁻¹ s⁻¹
